Test results reported in patent US20120294874A1.

Tests used:
[1] = molecular target: HLA-A201/LMP-1 monomer (recombinant, membrane free, refolded complex of HLA-A201 heavy chain, beta-2 microglobulin and LMP-1 peptide …) (human; Epstein-Barr virus); test: dose response curve, antigen at 30 ng/ml (method of Beatty et al.)
[2] = molecular target: HLA-A201/LMP-1 monomer (recombinant, membrane free, refolded complex of HLA-A201 heavy chain, beta-2 microglobulin and LMP-1 peptide …) (human; Epstein-Barr virus); test: dose response curve, antigen at 60 ng/ml (method of Beatty et al.)
[3] = molecular target: HLA-A201/LMP-1 monomer (recombinant, membrane free, refolded complex of HLA-A201 heavy chain, beta-2 microglobulin and LMP-1 peptide …) (human; Epstein-Barr virus); test: dose response curve, antigen at 120 ng/ml (method of Beatty et al.)
[4] = molecular target: HLA-A201/LMP-1 monomer (recombinant, membrane free, refolded complex of HLA-A201 heavy chain, beta-2 microglobulin and LMP-1 peptide …) (human; Epstein-Barr virus); test: average Kaff (Beatty et al. method)
[5] = molecular target: HLA-A201/LMP-1 monomer (recombinant, membrane free, refolded complex of HLA-A201 heavy chain, beta-2 microglobulin and LMP-1 peptide …) (human; Epstein-Barr virus); test: dose response curve, antigen at 15 ng/ml (method of Beatty et al.)
[6] = molecular target: HLA-A201/LMP-1 monomer (recombinant, membrane free, refolded complex of HLA-A201 heavy chain, beta-2 microglobulin and LMP-1 peptide …) (human; Epstein-Barr virus); test: Kaff from OD50 at two antigen concentrations (Beatty et al.), [Ag] 60 ng/ml
[7] = molecular target: HLA-A201/LMP-1 monomer (recombinant, membrane free, refolded complex of HLA-A201 heavy chain, beta-2 microglobulin and LMP-1 peptide …) (human; Epstein-Barr virus); test: Kaff from OD50 at two antigen concentrations (Beatty et al.), [Ag] 120 ng/ml
[8] = molecular target: HLA-A201/LMP-1 monomer (recombinant, membrane free, refolded complex of HLA-A201 heavy chain, beta-2 microglobulin and LMP-1 peptide …) (human; Epstein-Barr virus); test: Kaff from OD50 at two antigen concentrations (Beatty et al.), [Ag] 30 ng/ml
[9] = molecular target: HLA-A201/LMP-1 monomer (recombinant, membrane free, refolded complex of HLA-A201 heavy chain, beta-2 microglobulin and LMP-1 peptide …) (human; Epstein-Barr virus); test: Kaff from OD50 at two antigen concentrations (Beatty et al.), [Ag] 15 ng/ml

BB7.2 (pan anti-HLA-A2), commercially available anti-HLA-A2 antibody
[mAb] at OD50 [1]: 68.1 ng/mL | [mAb] at OD50 [2]: 54.1 ng/mL | [mAb] at OD50 [3]: 26.1 ng/mL | Ka [4]: 7.17e+08 M⁻¹ | [mAb] at OD50 [5]: 121 ng/mL | Ka [6]: 1.01e+09 M⁻¹ | Ka [7]: 5.7e+08 M⁻¹ | Ka [8]: 8.71e+08 M⁻¹ | Ka [9]: 4.31e+08 M⁻¹
